Source: the supplement of paper PMC9170038

Tested on: MS2 coat protein
Assay: apparent KD of MS2 coat protein; designed switch direction (-1 OFF switch, 1 ON switch): -1; higher = weaker reporter binding
In short: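 Designed RNA switches with common flanks were transcribed on Illumina chips by stalled E. coli RNA polymerase and titrated with SNAP-549-labelled MS2 coat protein, from 0.7 or 1.5 nM doubling to 3 µM, in Tris-HCl pH 7.5 buffer with KCl, MgCl2, BSA, DTT, tRNA and Tween-20. Steps lasted 0.8–1.5 h (lowest) to 10–20 min (highest). Titrations ran without input, with 200 uM small-molecule ligand, or with an oligonucleotide input. Normalised cluster fluorescence was curve-fitted, and apparent KD is the per-design median over clusters.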

[1] = input ligand: microRNA oligo, concentration not stated
[2] = Eterna round: R95, input ligand: FMN 200 uM
[3] = Eterna round: R95, input ligand: microRNA oligo, concentration not stated
[4] = Eterna round: R95, input ligand: none

| Sequence | apparent KD of MS2 coat protein (input ligand: FMN 200 uM) [nM] | apparent KD of MS2 coat protein (input ligand: none) [nM] | apparent KD of MS2 coat protein [1] [nM] | apparent KD of MS2 coat protein [2] [nM] | apparent KD of MS2 coat protein [3] [nM] | apparent KD of MS2 coat protein [4] [nM] |
| --- | --- | --- | --- | --- | --- | --- |
| ACAGACCGUGUUAGGAUAUUAUUUUACUCAAGUAGUGAGAAGGGACAUGAGGAUCACCCAUGUGUGGGAGUUGA [Eternabot (L2) Solution 42] (Eterna round: R97, puzzle: Brourd's mod of Exclusion 4) | 83 | 87 | – | – | – | – |
| UAGUUAUUCACAGGAUAUCGCCUCUUAUUACAUGAGGAUCACCCAUGUUUACUUAGUUACAUGUUCGAGAAGGGUGUAGCCGUU [JR_ExcNG2_Sub044] (Eterna round: R96, puzzle: Exclusion NG 2) | – | – | 301 | – | – | – |
| CCCAGGGCAGGAUAUAGAGGGCUAAACAUGAGGAUCACCCAUGUGACCUCGGAACAGUUGCUAGAAGGGCCAGAUU [Maedonxe] (puzzle: Exclusion 5) | – | – | – | 29.8 | 17.7 | 22 |
| CUGGUCCGAGGAUAUAUUAAGUGAUACAUGAGGAUCACCCAUGUUAUUUGAUGGAUAUUAAUAGAAGGCGGACUAG [Mat - Exclusion 5 - JL mod - D75] (puzzle: Exclusion 5) | – | – | – | 31.9 | 18.8 | 28.7 |
| ACAGUAUGAUCCGCUCAACAUGAGGAUCACCCAUGUGAUGACUAGGAUAUUAGUAGCCCGCGCAUUAAGAAGGAGUUACGAUUG [Eternabot solution 33] (Eterna round: R96, puzzle: Exclusion NG 3) | 20 | 23.6 | 13.9 | – | – | – |
| AAGUACCGUCACGAUAGUGAUGGUACAACUAGCAUGUAAACAUGAGGAUCACCCAUGUCCUCAAUUGCUCGUCUUAU [Sensor 3 - 69] (puzzle: Sensor v3, turn-off variant 2) | – | – | – | 740 | 829 | 814 |
| AGCCUACAUGAGGAUCACCCAUGUCAGGAUAUCUCGCAACGUGUCAAGUUCACGUCGCAGAGAAGGGACUCGGG [Tienberi] (puzzle: Exclusion 1) | – | – | – | – | 51.9 | – |
| GUGCAACAUGAGGAUCACCCAUGUCAGGAUAUGCGAAUUUCAUCAAAAGAUGAAAUUUGCAGAAGGGACUGUAC [Omei Ex1 A20] (Eterna round: R97, puzzle: Exclusion 1) | 40.6 | 48.9 | – | – | – | – |
| CUGUUUUUCGCAGGAUAUGCUCCUCCUUUAUUUGCAGAAGGGCGUUAAACAUGAGGAUCACCCAUGUAUGGUAAUGACAUUUUC [JR_ExcNG1_Sub063] (Eterna round: R96, puzzle: Exclusion NG 1) | 135 | 29.6 | 20.8 | – | – | – |
| UCGGCGCGAGGAUAUGCGGCUCCUGCUUCGGGCCGGAGCGUACAUGAGGAUCACCCAUGUAGAAGGCGCGCCGC [Apr-15 SS2-39] (puzzle: Exclusion 2) | – | – | – | – | 10.2 | – |
| GGUCUACAUGAGGAUCACCCAUGUCAGGAUAUCGUGUGUUUUUUUUCGGCCGCGCGUGCGAGAAGGGACGUCUU (puzzle: Exclusion 1) | – | – | – | – | 16.6 | – |
| GUACCCAAAGGAUAUACUUGAGGAUCACCCAAGUAUGUCGCUUGGGCACGGUAAAGGAGUAGAAGGUUGGGAAG [Aedti] (Eterna round: R97, puzzle: Exclusion 3) | 12.5 | 11.8 | – | – | – | – |
| ACCCAACAUGAGGAUCACCCAUGUCAGGAUAUCCAAGCGAAAGCAAAAGCGAAAGCAAGGAGAAGGGACAAUGG [ChP 04-04-2015 #7] (puzzle: Exclusion 1) | – | – | – | 134 | 161 | 276 |
| AAGUUACAUGAGGAUCACCCAUGUGAGGAUAUGAGUCAGUCACGGUGACGUGGCUGACUCAGAAGGCACAUAGG [JL-ex1-4.42 salish99 mod] (Eterna round: R97, puzzle: Exclusion 1) | 256 | 77.1 | – | – | – | – |
| GUGUAGUCAGGAUAUACAUAGGAAGAGAAGAUAAGAUAAGCACAUGAGGAUCACCCAUGUAGAAGGGACAGUGU [Excluse me!! 2 - Jieux - Exclusion 2] (puzzle: Exclusion 2) | – | – | – | 77.6 | 66.1 | 61 |
| GGUCGACAUGAGGAUCACCCAUGUCAGGAUAUCGUCACUGGAGCUUCGGCUCCAGUGACGAGAAGGGAUAUAAU [E1/15-A1] (Eterna round: R97, puzzle: Exclusion 1) | 24.6 | 36.9 | – | – | – | – |
| GAAGAUCGAGUUAGGAUAUGAUUACUAUCCGAAAAUCAGAAGGAACUUGAGGAUCACCCAAGUAAAGAAGAAAU [JR_BMEx4_Sub051] (Eterna round: R97, puzzle: Brourd's mod of Exclusion 4) | 22.9 | 16.5 | – | – | – | – |
| CACAUUACAAAGGAUAUCUGACCAUGCCCUGGCAGAGAAGGUUGGACAUGAGGAUCACCCAUGUGUAUCCAAGU [Eternabot (Original) Solution 6] (Eterna round: R97, puzzle: Exclusion 6) | 37.7 | 26.8 | – | – | – | – |
| UAUAUACAUGAGGAUCACCCAUGUAAGGAUAUGCUUUAUUAUUAUUAUUAUUAUUAUUGCAGAAGGUACAUUAU [LRO-Excl01-05] (Eterna round: R97, puzzle: Exclusion 1) | 38.4 | 33.8 | – | – | – | – |
| GAGCCAUCGUGAGAUGGCUAAUUUACAUGAGGAUCACCCAUGUAGGAUAUCGAUUGCUUUGCAGUCGAGAAGGACAUGUUUAAU [JL ENG3 3.98] (Eterna round: R96, puzzle: Exclusion NG 3) | 71.6 | 36.2 | 28.3 | – | – | – |
| ACUAUCAGAUUCUUAGGGUACAUGAGGAUCACCCAUGUGUACGUCUACGAGGGUUCGAAAAUCAAGCUCCGCUCGUC [Eternabot (L2) Solution 19] (Eterna round: R97, puzzle: Sensor, turn-off variant 1) | 99.2 | 91.8 | – | – | – | – |
| CAAAACCUAGGAUAUACAUGAGGAUCACCCAUGUCGGGCCUACGCUAAACGCGCCUCAGUAGAAGGAGGGAAAC [Usasoon] (puzzle: Exclusion 3) | – | – | – | 135 | 52.6 | 63.2 |
| UAACUACAUGUAGGAUAUGCGUGGCGAAGCUAUGCAGAAGGACAUGAGGAUCACCCAUGUUUUAGCGUCUGCGUACAGAUGCGU [JL ENG1 1.50] (Eterna round: R96, puzzle: Exclusion NG 1) | 34.8 | 19.1 | 13.1 | – | – | – |
| ACCUCUUGAGGAUAUACAUGAGGAUCACCCAUGUUCCUUAAUAAAAUAGUUAUAUCGUGUAGAAGGUGGGAGGC [Eternabot (L2) Solution 42] (Eterna round: R97, puzzle: Exclusion 3) | 11.4 | 69 | – | – | – | – |
| CUGGUGUGAGGAUAUCAAAGACCUCGGGAAAGAACCGAGAAUGAGAAGGCACAUGAGGAUCACCCAUGUAACAA [Enerteon] (puzzle: Exclusion 4) | – | – | – | – | 17.9 | – |
| GGUAGAGAGCAGGAUAUCUUGGGUAAGUAUCGUAGAGAAGGGCUCACAUGAGGAUCACCCAUGUGGUCCUAGAU [JL Dibiri mod 04] (puzzle: Exclusion 6) | – | – | – | – | 11.8 | – |
| UUUUAGGCAGGAUAUACAUUUUUUUUAUUAUCCUCAUUAUUACAUGAGGAUCACCCAUGUAGAAGGGCCAUUUU [My Design] (puzzle: Exclusion 2) | – | – | – | – | 38.5 | – |
